{"source": "paper PMC6065011", "key": {"[1]": {"molecular_target": "HMGB1, disulfide form (recombinant) (UniProt P09429)", "sequence (P09429 whole entry)": "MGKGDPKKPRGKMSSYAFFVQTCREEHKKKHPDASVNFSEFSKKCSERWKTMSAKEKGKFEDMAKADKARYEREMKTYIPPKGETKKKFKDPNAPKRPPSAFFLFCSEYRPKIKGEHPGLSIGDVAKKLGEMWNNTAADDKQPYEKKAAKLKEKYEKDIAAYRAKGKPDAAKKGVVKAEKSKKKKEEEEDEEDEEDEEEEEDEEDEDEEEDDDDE", "experiment": "SPR"}, "[2]": {"molecular_target": "Siglec-10-Fc (soluble, recombinant) (UniProt Q96LC7)", "sequence (Q96LC7 17-550)": "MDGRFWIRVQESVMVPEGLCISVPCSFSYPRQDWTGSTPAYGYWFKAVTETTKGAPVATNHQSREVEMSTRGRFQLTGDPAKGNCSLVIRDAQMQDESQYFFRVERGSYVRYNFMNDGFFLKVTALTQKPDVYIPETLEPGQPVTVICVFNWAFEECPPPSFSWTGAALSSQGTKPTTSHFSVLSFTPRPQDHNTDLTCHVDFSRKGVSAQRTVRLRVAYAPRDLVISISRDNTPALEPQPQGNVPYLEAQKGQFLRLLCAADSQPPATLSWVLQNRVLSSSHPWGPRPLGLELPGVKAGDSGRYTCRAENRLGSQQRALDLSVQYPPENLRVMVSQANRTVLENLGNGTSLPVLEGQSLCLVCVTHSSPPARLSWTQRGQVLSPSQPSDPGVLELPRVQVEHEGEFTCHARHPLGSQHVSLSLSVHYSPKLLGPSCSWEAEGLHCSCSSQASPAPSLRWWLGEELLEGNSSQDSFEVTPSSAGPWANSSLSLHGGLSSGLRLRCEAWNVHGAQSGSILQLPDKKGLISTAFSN", "experiment": "SPR"}}, "data": [{"substance": "CD52-Fc (soluble CD52, recombinant) (from UniProt P31358 25-36) (Fc fusion)", "values": [{"measurement": "Kd", "setting": "[1]", "result": 130, "unit": "nM"}, {"measurement": "Kd", "setting": "[2]", "result": 565, "unit": "nM"}]}]}
